In PMC8905165, “Reconstitution of an active human CENP-E motor” (Open Biology, 2022):

B1: CENP-E754-2mNeon (domain or fragment, human, UniProt Q02224 1-754, looked up)
chain: MAEEGAVAVCVRVRPLNSREESLGETAQVYWKTDNNVIYQVDGSKSFNFDRVFHGNETTKNVYEEIAAPIIDSAIQGYNGTIFAYGQTASGKTYTMMGSEDHLGVIPRAIHDIFQKIKKFPDREFLLRVSYMEIYNETITDLLCGTQKMKPLIIREDVNRNVYVADLTEEVVYTSEMALKWITKGEKSRHYGETKMNQRSSRSHTIFRMILESREKGEPSNCEGSVKVSHLNLVDLAGSERAAQTGAAGVRLKEGCNINRSLFILGQVIKKLSDGQVGGFINYRDSKLTRILQNSLGGNAKTRIICTITPVSFDETLTALQFASTAKYMKNTPYVNEVSTDEALLKRYRKEIMDLKKQLEEVSLETRAQAMEKDQLAQLLEEKDLLQKVQNEKIENLTRMLVTSSSLTLQQELKAKRKRRVTWCLGKINKMKNSNYADQFNIPTNITTKTHKLSINLLREIDESVCSESDVFSNTLDTLSEIEWNPATKLLNQENIESELNSLRADYDNLVLDYEQLRTEKEEMELKLKEKNDLDEFEALERKTKKDQEMQLIHEISNLKNLVKHAEVYNQDLENELSSKVELLREKEDQIKKLQEYIDSQKLENIKMDLSYSLESIEDPKQMKQTLFDAETVALDAKRESAFLRSENLELKEKMKELATTYKQMENDIQLYQSQLEAKKKMQVDLEKELQSAFNEITKLTSLIDGKVPKDLLCNLELEGKITDLQKELNKEVEENEALREEVILLSELKSLPS
notes: human CENP-E, N-terminal truncation with the motor domain and five predicted coiled-coils of the native stalk, ending at residue 754; The methods call it a dimeric motor; the self-association row is of one chain with another; also called truncated CENP-E; source: Sf9 cells (baculovirus), purified (HisTrap, Superose 6); not shown: mNeonGreen (2 x tandem), C-terminal, kept
B2: CENP-E483-2mNeon (domain or fragment, human, UniProt Q02224 1-483, looked up)
chain: MAEEGAVAVCVRVRPLNSREESLGETAQVYWKTDNNVIYQVDGSKSFNFDRVFHGNETTKNVYEEIAAPIIDSAIQGYNGTIFAYGQTASGKTYTMMGSEDHLGVIPRAIHDIFQKIKKFPDREFLLRVSYMEIYNETITDLLCGTQKMKPLIIREDVNRNVYVADLTEEVVYTSEMALKWITKGEKSRHYGETKMNQRSSRSHTIFRMILESREKGEPSNCEGSVKVSHLNLVDLAGSERAAQTGAAGVRLKEGCNINRSLFILGQVIKKLSDGQVGGFINYRDSKLTRILQNSLGGNAKTRIICTITPVSFDETLTALQFASTAKYMKNTPYVNEVSTDEALLKRYRKEIMDLKKQLEEVSLETRAQAMEKDQLAQLLEEKDLLQKVQNEKIENLTRMLVTSSSLTLQQELKAKRKRRVTWCLGKINKMKNSNYADQFNIPTNITTKTHKLSINLLREIDESVCSESDVFSNTLDTLSEIE
notes: human CENP-E, N-terminal truncation with the motor domain and the first predicted coiled-coil (334-401), ending at residue 483; the start at residue 1 is printed only for the ColabFold input (1-483); Codon-optimised synthetic gene in pFastBac1; A mixture of monomers and dimers in solution; also called truncated human CENP-E; minimal human CENP-E motor; source: Sf9 cells (baculovirus), purified …

Key:
[1] = target: the molecule itself; experiment: single-molecule photobleaching step counting and initial intensity analysis (TIRF); 0.5 nM fluorescently tagged motor adsorbed non-specifically to silanized coverslips, BRB80 with oxygen scavenger mix, 30°C; monomer to dimer
[2] = target: the molecule itself; experiment: native gel or EMSA; native PAGE of purified CENP-E483-2mNeon; monomer to dimer

| Protein | binding result [1] | stoichiometry N [2] |
| --- | --- | --- |
| B1 | binds | – |
| B2 | – | 2 |
